Assay results reported in patent publication US20030119733A1, “Compositions and methods for inhibiting hepatocyte invasion by malarial sporozoites” (New York University, priority 1992, published 2003).

B1: CSFZ (Cys): residues 27-123 plus NANP (a single instance) plus residues 300-411 of P. falciparum CS protein (protein)
chain: GSSSNTRVLNELNYDNAGTNLYNELEMNYYGKQENWYSLKKNSRSLGENDDGNNNNGDNGREGKDEDKRDGNNEDNEKLRKPKHKKLKQPGDGNPDPNANPMPNDPNRNVDENANANNAVKNNNNEEPSDKHIEQYLKKIKNSISTEWSPCSVTCGNGIQVRIKPGSANKPKDELDYENDIEKKICKMEKCSSVFNVVNSSIGLIMVLSFLFL

What was measured:
[1] = test system: plasma membrane receptors for CS; assay: Enzyme digestion of human liver sections before CS27IVC immunolabeling; format: binding; settings: 2 hours 37°; chondroitinase ABC 2 U/ml, heparitinase 20 U/ml
Method: Normal rat kidney tissue was fixed with 4% paraformaldehyde and 1% glutaraldehyde in phosphate-buffered saline (PBS) and embedded in LR White; normal human liver was fixed similarly and embedded in Lowicryl K4M (Cerami et al., Cell 70:1021-1033, 1992). Ultrathin sections were sequentially labeled with 10-50 μg/ml CS27IVC, 15 μg/ml mAb 2A10 and a 1:30 dilution of PAG15. Prior to immunolabeling, part of the sections were incubated for 120 min at 37° C. with heparitinase and chondroitinase ABC (both ICN) using concentrations of 20 U/ml and 2 U/ml, respectively. Control specimens were incubated only with the gold markers or with mAb 2A10 and PAG15.
Human liver sections were incubated with heparitinase or chondroitinase ABC for 2 hours at 37° C., prior to immunolabeling with recombinant CS. The sections were then labelled with CS27IVC followed by mAb 2A10 and PAG15. FIGS. 8a and 8b are electron micrographs of Lowicryl K4M-embedded sections. The section of FIG. 8a was treated with 2 U/ml chondroitinase ABC (ICN) for 2 hour at 37° before the immunolabeling. The typical CS label on the space of Disse (D) and on the lateral domain of the hepatocyte plasma membrane (arrows) and on lysosomes (L) was unaltered. The patchy pattern of CS-labeled hepatocyte microvilli within the space of Disse was still present in the chondroitinase-treated sections (FIG. 8a). […]

[2] = test system: CS binding to HepG2 cells; assay: Enzyme treatment of HepG2 cells before CS binding; design: species or system human; settings: heparitinase from 5 U/ml, chondroitinase ABC from 1 U/ml; CSFZ(Cys) 5 μg/ml
Method: In some experiments the HepG2 cells were treated with either heparitinase (Sigma) or chondroitinase ABC (ICN) before incubation with the CS. Heparitinase treatment was performed in 0.05 M acetate buffer, pH 6.0, containing 1 mg/ml BSA and 1 mM PMSF, 5μg/ml leupeptin and pepstatin. Cells were treated for 3 hours at 37° C. and then were washed 3× with TBS before protein was added. Chondroitinase ABC treatment was performed overnight at 37° C. in 0.1 M Tris/HCl, pH 8.0, 0.03 M sodium acetate and 0.1% BSA, and washed 3× with TBS. Enzyme-treated cells were then incubated with CS as outlined above.
Paraformaldehyde-fixed HepG2 cells were preincubated with varying amounts of enzyme, washed and then incubated with 5 μg/ml of CSFZ(Cys). […] Heparitinase and chondroitinase ABC were used at initial concentrations of 5 U/ml and 1 U/ml, respectively. […] Each point represents the mean of triplicates, and percent inhibition was calculated by comparison to cells that were not treated with enzyme.

HepG2 cells = assay: HepG2 cell binding assay of recombinant CS polypeptides; design: species or system human; settings: indirect immunofluorescence
Method: For indirect immunofluorescence, HepG2 cells (ATCC number HB8065, Rockville, Md.; Knowles, B. P., et al., Science 209:497-499, 1980) were grown on slides (Cel-Line Associates, Inc., Newfield, N.J.) overnight in minimum essential medium with 10% fetal calf serum (FCS-MEM; GIBCO, Grand Island, N.Y.), 1 mM L-glutamine (GIBCO), 3 mg/ml glucose (Sigma), 1×nonessential amino acids (GIBCO), 50 μg/ml penicillin, and 100 μg/ml streptomycin (GIBCO). For the enzyme-linked immunosorbent assay, 10^5 HepG2 cells were deposited in 96-well Falcon tissue culture plates (Becton Dickinson, Oxnard, Calif.) and grown for 24 hr. in FCS-MEM. The cells were fixed with 4% paraformaldehyde, washed three times with PBS, and stored at 4° C. in BSA/TPBS until use. Before the experiments, plates were blocked for 2 hr. at 37° C. with 1% gelatin, 0.05% Tween in PBS (pH 7.4) (gelatin/TPBS). […] After 15 min., fluorescence was read in a Fluoroskan II plate reader (Flow Lab Inc., McLean, Va.) with excitation filter 350 nm and emission filter 460 nm. […]
In order to quantify more accurately the effectiveness of various peptides in inhibiting the CS27IVC binding to hepatocytes additional experiments were performed using the human hepatoma cell line HepG2. This cell line is invaded readily by P.berghei sporozoites. […] The results, expressed in fluorescence units v. protein concentration are depicted in FIG. 6. […]

[3] = test system: heparan sulfate proteoglycans (HSPG); assay: CS/proteoglycan co-immunoprecipitation; format: binding, human
Method: All extracts and supernatants were first precleared with normal rabbit serum and Staph A cells. Then 32 μg/ml of CSFZ(Cys) or 64 μg/ml of CS27IVC, Falc-2 or Falc-1 were added for 30 minutes, followed by 10.8 μg/ml mAb 2A10 for 30 minutes, and 1% Staph A cells (final concentrations). The suspensions were shaken for 1 to 5 hours at 4° C. The Staph A cells were washed 3 times with the lysis buffer A, 2 times with lysis buffer B (10 mM Tris-HCl, pH 7.2, containing 100 mM NaCl and 0.5% NP40), 1 time with 50 mM Tris-HCl, ph 7.2, and were processed in this buffer for electrophoresis under reducing and non-reducing conditions.
Extracts of cells metabolically labeled with ^35SO4 were incubated for 30 minutes at 4° C. with 32 μg/ml of recombinant CSFZ(Cys) or 64 μg/ml Falc-1, and were immunoprecipitated with mAb 2A10 and Staph A cells. […] Immunoprecipitation with Falc-1 was negative. The SDS-PAGE patterns of the total lysate of HepG2 cells, and of the molecules co-immunoprecipitated with CSFZ(Cys) resembled the corresponding liver SDS-PAGE patterns. In kidney lysates, CSFZ(Cys) selectively immunoprecipitated a band of slightly lower molecular weight than the total kidney sulfated molecules.
Sub-confluent HepG2 cells were incubated with various concentrations of trypsin for 5 minutes at 4° C. […] Independently of the trypsin concentration, about 80% of the released HSPG was co-immunoprecipitated by 32 μg/ml CSFZ(Cys) and 10.8 μg/ml mAb 2A10. Under the same conditions, Falc-1 was negative.
^35SO4-labeled trypsin-released proteoglycan (total supernatant) was precipitated by CSFZ(Cys) (32 μg/ml), Falc-2 (64 μg/ml), CS27IVC (64 μg/ml) and Falc-1 (64 μg/ml). The labeled molecules were incubated with CSFZ(Cys), CS27IVC, and Falc-2 at equivalent concentrations of Region II+, and co-immunoprecipitated with the mAb 2A10. CSFZ(Cys), lacking most of the repeat region, precipitated up to 86% of the total sulfate-labeled proteoglycans (see FIG. 14), while CS27IVC and Falc-2 precipitated only 18% and 6% of the counts, respectively. Falc-1, which lacks Region II+, was negative.
Subconfluent sulfate-labeled HepG2 cells were incubated with 20 μg/ml trypsin for 5 minutes at 4° C., and the supernatants were loaded onto an anion exchange chromatography Pharmacia mono-Q column. These were eluted with a 0 to 2 M NaCl gradient in the presence of 7 M urea. […] Protein was not detectable in the labeled peaks. One ml fractions were collected and counted.

rat liver sections = assay: Staining of frozen tissue sections with recombinant CS polypeptides; format: binding; settings: revealed with MAb 2A10, fluorescence; CS27IVC 50-5 μg/ml, Falciparum-2 25 μg/ml, Falciparum-1 up to 250 μg/ml
Method: The procedure was carried out essentially as described by Dukor P. et al., Proc. Natl. Acad. Sci. USA 67:991-997, 1970 and Imai Y. et al., J. Cell. Biol. 111:1225-1232, 1990. Rats were euthanized with CO2. Small pieces of the liver, spleen, heart, brain and lung were removed, snap frozen in liquid nitrogen, embedded in Tissue Tek O.C.T. (Miles, Inc., Naperville, Ill.), and cut into 5 μm sections. Sections were dried for 30 min., fixed for 10 min. in 4% paraformaldehyde, rinsed three times with phosphate-buffered saline (PBS), and either used immediately or stored at 4° C. in 1% BSA, 0.5% Tween, PBS (BSA/TPBS). After blocking with 100 mM glycine (pH 7.2) and with BSA/TPBS, the sections were sequentially incubated at 37° C. with recombinant proteins for 1 hr, 10 μg/ml MAb 2A10 for 45 min., and rat anti-mouse immunoglobulin conjugated to fluorescein isothiocyanate (Boehringer Mannheim, Indianapolis, Ind.) for 45 min. The slides were counterstained for 10 min. with 0.3% Evans blue, rinsed extensively in PBS, and finally observed under a fluorescence microscope. For peptide inhibition experiments, the sections were first incubated with the peptide at various concentrations in BSA/TPBS for 1 hour at 37° C., washed six times with BSA/TPBS, and then stained with 2.5 μg/ml CS recombinant protein as described above. In a few experiments, the tissues were fixed for 10 min. with methanol, acetone, or 4% paraformaldehyde containing 0.5% glutaraldehyde.
Frozen sections of various rat organs were incubated with recombinant CS27IVC polypeptide. […] The staining closely followed the sinusoidal spaces of the hepatic lobules, indicating CS binding to the hepatocyte membrane. Other areas of the liver sections and sections of other organs (spleen, lung, heart or brain) were not stained. Control sections (incubated with CS27IVC in the absence of antibody or vice versa) were not stained either.
To define the region of the CS that mediates the perisinusoidal staining various other recombinant constructs were also used in the frozen section assay.

Row | Molecule | CS27IVC label on human liver sections after enzyme treatment [1] | effect of enzyme treatment of HepG2 cells on CS binding [2] | binding to HepG2 cells (HepG2 cells) | co-immunoprecipitation of 35SO4-labeled sulfated molecules ([3]; lysates of rat liver, HepG2 cells, kidney, CSFZ(Cys) 32 μg/ml, others 64 μg/ml) | counts in the mono-Q peak co-immunoprecipitated ([3]; peak at 0.6 to 0.8 M NaCl) | released HSPG co-immunoprecipitated ([3]; trypsin-released from HepG2 cells, CSFZ(Cys) 32 μg/ml, mAb 2A10 10.8 μg/ml) | total sulfate-labeled proteoglycans precipitated ([3]; trypsin-released proteoglycan, equivalent concentrations of Region II+) | binding (staining) to frozen liver sections (rat liver sections)
1 | chondroitinase ABC | unaltered | no effect |  |  |  |  |  | 
2 | B1 |  |  | bound | co-immunoprecipitated sulfated molecules | about 80% | about 80% | up to 86% | bound with the same pattern as CS27IVC
